This is an account of results in US20060229240A1 (GARDELL ET AL, published 2006).

Like-named read-outs stand apart in the source and are kept apart here. Positions of bridges follow the written chain, without caps; N, C: chain ends. Non-standard residues stand in square brackets, D forms with d. No end group written: not given here. hArg = N=C(N)NCCCC[C@H](N)C(=O)O; Aib = CC(C)(N)C(=O)O A value given as a limit tells only on which side of the number the result lay.

For assay [1], the target named is T1, PTH/PTHrP receptor (P1R), wild-type, full-length (human, UniProt Q03431 27-593).
T1 sequence (looked up): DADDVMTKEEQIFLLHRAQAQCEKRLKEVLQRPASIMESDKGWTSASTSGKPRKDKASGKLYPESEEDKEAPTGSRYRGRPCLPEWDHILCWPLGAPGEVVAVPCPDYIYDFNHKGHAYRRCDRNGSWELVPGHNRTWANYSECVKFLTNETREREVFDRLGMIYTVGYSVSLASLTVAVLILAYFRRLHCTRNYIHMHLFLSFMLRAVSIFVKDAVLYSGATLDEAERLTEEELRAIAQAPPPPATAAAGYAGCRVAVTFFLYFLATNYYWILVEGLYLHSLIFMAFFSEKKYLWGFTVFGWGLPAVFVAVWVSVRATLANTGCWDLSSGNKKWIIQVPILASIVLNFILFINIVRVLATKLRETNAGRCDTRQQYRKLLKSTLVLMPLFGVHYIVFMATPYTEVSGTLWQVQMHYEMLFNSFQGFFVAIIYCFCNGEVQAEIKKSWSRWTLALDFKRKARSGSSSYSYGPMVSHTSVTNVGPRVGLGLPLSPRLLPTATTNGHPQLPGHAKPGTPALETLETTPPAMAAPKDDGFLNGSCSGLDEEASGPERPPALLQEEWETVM
The assay is described as follows: cell-based or functional assay.

Assay [2] concerns the target T2, P1R-DelNt (truncated human P1R deleted for residues 24-181) (human, UniProt Q03431 182-593).
T2 sequence (looked up): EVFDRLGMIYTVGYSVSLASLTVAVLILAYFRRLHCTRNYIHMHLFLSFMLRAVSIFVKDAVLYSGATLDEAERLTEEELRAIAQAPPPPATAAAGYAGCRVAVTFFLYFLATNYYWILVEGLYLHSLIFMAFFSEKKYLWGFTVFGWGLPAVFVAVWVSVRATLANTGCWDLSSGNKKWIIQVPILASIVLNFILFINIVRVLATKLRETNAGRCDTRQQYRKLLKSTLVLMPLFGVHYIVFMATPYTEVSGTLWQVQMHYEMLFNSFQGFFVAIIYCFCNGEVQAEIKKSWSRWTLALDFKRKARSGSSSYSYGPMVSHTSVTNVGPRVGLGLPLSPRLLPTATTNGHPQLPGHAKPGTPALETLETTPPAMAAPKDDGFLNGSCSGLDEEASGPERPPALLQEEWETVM
The assay is described as follows: cell-based or functional assay.

Assay [3] concerns the target T1, PTH/PTHrP receptor (P1R), wild-type, …. In words: cell-based or functional assay. The source holds these as a separate data set.
The target in assay [4] is T2, P1R-DelNt (truncated human P1R deleted …). In words: cell-based or functional assay. This is another data set of the same source.
Assay [5] deals with T1, PTH/PTHrP receptor (P1R), wild-type, …. In words: cell-based or functional assay. The source holds these as a separate data set.
For assay [6], the target named is T2, P1R-DelNt (truncated human P1R deleted …). The assay is described as follows: cell-based or functional assay. This is another data set of the same source.
Assay [7] deals with T1, PTH/PTHrP receptor (P1R), wild-type, …. In words: cell-based or functional assay. The source holds these as a separate data set.
The target is the same in assay [8]. The assay is described as follows: competition with 125I-[Ala3,12,Gln10,Har11,Trp14,Arg19,Tyr21]PTH(1-21)-amide tracer on HKRK-B28 cells expressing P1R. As for the experimental part:
Competition Binding. Binding reactions were performed with […] cells or in COS-7 cells in 24-well plates. The cells were rinsed with 0.5 mL of binding buffer, and then treated successively with 100 μL binding buffer, 100 μL of binding buffer containing various amounts of unlabeled competitor ligand, and 100 μL of binding buffer containing ca. 100,000 cpm of ¹²⁵I-[M]PTH(1-21)(SEQ. ID. NO. 16) or ¹²⁵I-[Aib^{1,3},M]PTH(1-21)(SEQ. ID. NO. 17) (ca. 26 fmol; final volume=300 μL). Incubations were 4 to 6 h at 4° C., at which time near equilibrium conditions were attained. Cells were then placed on ice, the binding medium was removed, and the monolayer was rinsed three times with 0.5 mL of cold binding buffer. The cells were subsequently lysed with 0.5 mL 5N NaOH and counted for radioactivity. For each tracer and in each experiment, the non-specific binding was determined as the radioactivity that bound in the presence of the same unlabeled peptide at a concentration of 1 μM, and was ˜1% of total radioactivity added for each tracer. The maximum specific binding (B₀) was the total radioactivity bound in the absence of competing ligand, corrected for nonspecific binding, and for each tracer, ranged from 8% to 20% of the total radioactivity added. Nonlinear regression was used to calculate binding IC₅₀ values (see below). Scatchard transformations of homologous competition binding data derived from studies with 26 fmol of ¹²⁵I-[Aib^{1,3},M]PTH(1-21) (SEQ. ID. NO. 17) were employed for estimations of apparent equilibrium dissociation constant (kDapps) and total number of ligand binding sites (Bₘₐₓ), assuming a single class of binding sites and equal affinities of the iodinated and non iodinated ligand.
The peptide PTH(1-34) ([Tyr³⁴]bPTH(1-34)NH₂) (SEQ. ID. NO. 10) and analogs containing substitutions at positions 6 and/or 10 in place of Gln and Asn, respectively, were evaluated in HKRK-B28 cells for the capacity to stimulate cAMP accumulation, and to inhibit the binding of ¹²⁵I-[Ala^{3,12}, Gln¹⁰, Har¹¹, Trp¹⁴,Arg¹⁹, Tyr²¹]PTH(1-21)-amide (SEQ. ID. NO. 30) tracer radioligand.

Assay [9] shares this target. In words: cell-based or functional assay. The source holds these as a separate data set.

In the case of AVAEIQLMHQR-NH2 [PTH(1-11) (AlaValAlaGluIleGlnLeuMetHisGlnArg-amide)], the “fold increase in cAMP formation” value worked out at 75 fold in assay [1] and 55 fold in assay [2]. Besides, the “cAMP EC50” value in [3] turned out to be 5 µM; in assay [4], 14 µM. The “cAMP Emax (%)” value in [3] and in assay [4] was 100% each time.

B1: [Ala^6,10]PTH(1-34) (peptide)
peptide: SVSEIALMHALGKHLNSMERVEWLRKKLQDVHNY-NH2
notes: Double Ala analog of [Tyr^34]hPTH(1-34)amide
With B1, the “cAMP EC50” value in assay [5] amounted to 0.3 µM; in [6], 19 µM; in assay [7], 2.2 µM. For the same molecule, the “cAMP Emax (%)” value in assay [5] was found to be 121%; in [6] it was 44%; in assay [7], 107%. In assay [8], this molecule had a half-maximal inhibitory concentration (IC50) of 3.9 µM.

B2: [Ala^6]PTH(1-34) (peptide)
peptide: SVSEIALMHNLGKHLNSMERVEWLRKKLQDVHNY-NH2
notes: Gln6->Ala analog of [Tyr^34]hPTH(1-34)amide
On to B2, for which the figures for the “cAMP EC50” value in assay [5], in assay [6] and in assay [7] were 0.17 µM, over 100 µM and 4.9 µM, respectively. For the same molecule, the “cAMP Emax (%)” value is 104% in assay [5], 4.5% in assay [6] and 105% in assay [7]. For the same molecule, the IC50 in assay [8] was 4.5 µM.
As for SVSEIQLMHALGKHLNSMERVEWLRKKLQDVHNY-NH2 [[Ala^10]PTH(1-34)], the “cAMP EC50” value in assay [5] worked out at 0.27 µM; in [6], 14 µM; in assay [7], 3 µM. For the same molecule, the “cAMP Emax (%)” value in assay [5] amounted to 96%; in [6], 46%; in [7], 106%. Besides, the half-maximal inhibitory concentration (IC50) in assay [8] came out at 6.4 µM.

B3: [(Lys^6, Glu^10)lac.]PTH(1-14) (peptide)
peptide: AVAEIKLMHE[hArg]AKW-NH2
modifications: lactam 6-10; N-terminus assumed
SMILES: CC[C@H](C)[C@H](NC(=O)[C@H](CCC(=O)O)NC(=O)[C@H](C)NC(=O)[C@@H](NC(=O)[C@H](C)N)C(C)C)C(=O)N[C@H]1CCCCNC(=O)CC[C@@H](C(=O)N[C@@H](CCCCNC(=N)N)C(=O)N[C@@H](C)C(=O)N[C@@H](CCCCN)C(=O)N[C@@H](Cc2c[nH]c3ccccc23)C(N)=O)NC(=O)[C@H](Cc2c[nH]cn2)NC(=O)[C@H](CCSC)NC(=O)[C@H](CC(C)C)NC1=O
Consider B3, for which the “cAMP potency relative to linear [Lys^6, Glu^10]PTH(1-14)” value in [1] is 6 fold. For the same molecule, in assay [9], the “cAMP EC50” value amounted to 21 µM and the “cAMP Emax (%)” value came out at 59%.

B4: [Aib^1,3]PTH(1-14) (AibValAibGluIleGlnLeuMetHisGlnHarAlaLysTrp-amide) (peptide)
peptide: [Aib]V[Aib]EIQLMHQ[hArg]AKW-NH2
modifications: N-terminus assumed
SMILES: CC[C@H](C)[C@H](NC(=O)[C@H](CCC(=O)O)NC(=O)C(C)(C)NC(=O)[C@@H](NC(=O)C(C)(C)N)C(C)C)C(=O)N[C@@H](CCC(N)=O)C(=O)N[C@@H](CC(C)C)C(=O)N[C@@H](CCSC)C(=O)N[C@@H](Cc1c[nH]cn1)C(=O)N[C@@H](CCC(N)=O)C(=O)N[C@@H](CCCCNC(=N)N)C(=O)N[C@@H](C)C(=O)N[C@@H](CCCCN)C(=O)N[C@@H](Cc1c[nH]c2ccccc12)C(N)=O
Turning to B4, in assay [2], the “fold increase in cAMP accumulation” value amounted to 50 fold. For the same molecule, in [4], the “cAMP EC50” value was 0.0066 µM and the “cAMP Emax (%)” value stood at 100%.

One may read the IC50 as the concentration needed to halve the response being measured.
